Results on three molecules are retold here after patent US20130303393A1 (RESEARCH DEVELOPMENT FOUNDATION, published 2013).

The labels stand for the following.
B1: YMB2 IgG (antibody, V domains shown)
VH: EVQLQQSGAELVKPGASVKLSCTASGFNIKDTYMHWVKQRPEQGLEWIGRIDPENGNTKYDPKFQGKATITADTSSNTAYLQLSSLTSEDTAVYYCARFLITTGYFDYWGQGTTLTVSS
VL: DIVLTQSHKFMSTSVGDRVSITCKASQDVGTAVAWYQQKPGQSPKLLIYWASTRHTGVPDRFTGSGSGTDFTLTISNVQSEDLADYFCQQYSSYPLTFGAGTKLEIKR
B2: YMF10 IgG (antibody, V domains shown)
VH: EVQLQQSGAELVRSGASVKLSCTASGFNIKDYYMHWVKQRPEQGLEWIGWIDPENGDTEYAPKFQGKATMSADTSSNTAYLQLSSLTSEDTAVYYCNAGTPFEGLRRADYWGQGTTLTVSS
VL: DIVMTQSHKFMSTSVGDRVSITCKASQDVGTAVAWYQQKPGQSPKLLIYWASTRHTGVPDRFTGSGSGTDFTLTISNVQSEDLADYFCQQYSSYPLTFGAGTKLELNR
B3: YMD1 IgG (antibody, V domains shown)
VH: EVQLVESGAELVRSGASVKLSCTASGFNIKDYYMHWVKQRPEQGLEWIGWIDPENGDTEYAPKFQGKATMTADTSSNTAYLQLSSLTSEDTAVYYCNAGTPFEGLRKADYWGQGTTLTVSS
VL: DIVMTQSHKLMSTSVGDRVSITCKASQDVGTAVAWYQQKPGQSPRLLIYWASTRHTGVPDRFTGSGSGTDFTLTITNVQSEDLADYFCQQYSSYPYTFGGGTKLEIKR

This assay deals with PA-63 (Bacillus anthracis, UniProt P13423 197-764).
Chain of PA-63 (P13423 197-764 limits assumed): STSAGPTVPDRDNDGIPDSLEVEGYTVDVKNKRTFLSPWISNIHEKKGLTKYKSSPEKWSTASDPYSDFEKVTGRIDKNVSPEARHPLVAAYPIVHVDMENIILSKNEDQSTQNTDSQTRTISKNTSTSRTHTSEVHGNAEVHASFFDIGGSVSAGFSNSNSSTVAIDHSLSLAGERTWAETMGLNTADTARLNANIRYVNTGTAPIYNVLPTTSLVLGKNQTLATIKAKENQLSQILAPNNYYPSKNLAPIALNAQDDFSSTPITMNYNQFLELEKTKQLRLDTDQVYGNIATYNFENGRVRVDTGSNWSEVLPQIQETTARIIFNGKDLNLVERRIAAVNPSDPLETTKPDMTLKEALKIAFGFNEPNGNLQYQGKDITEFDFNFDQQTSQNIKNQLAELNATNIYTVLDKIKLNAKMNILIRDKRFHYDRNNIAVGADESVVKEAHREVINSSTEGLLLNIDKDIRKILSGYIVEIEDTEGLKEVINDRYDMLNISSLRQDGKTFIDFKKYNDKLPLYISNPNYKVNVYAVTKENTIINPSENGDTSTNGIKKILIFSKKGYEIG
For orientation: Kd means the free concentration of one partner at which half of the binding sites on the other are occupied at equilibrium, for simple one-to-one binding. A word on the koff: it is a measure of how fast the partners let go of each other. As a reminder, the kon is the second-order rate constant of association. For B1, the dissociation constant Kd is 437 nM, the koff was found to be 0.014 s⁻¹ and the kon turned out to be 32000 M⁻¹ s⁻¹.
On the same counts, the results for B2 are 31 nM, 0.015 s⁻¹ and 490000 M⁻¹ s⁻¹.
The like results for B3 were, in that order, 55 nM, 0.019 s⁻¹ and 350000 M⁻¹ s⁻¹.
